Ratio to parent data for 45 substances are collected here from publication PMC6056499, “A systematic dissection of sequence elements determining β-Klotho and FGF interaction and signaling” (Scientific Reports, 2018).

The target in experiment [1] is human β-Klotho extracellular domain (aa1–992) fused with a 6 × His tag at the C-terminus (UniProt Q86Z14). Put plainly: AlphaScreen. The settings on record: parent: est. 1.0, read off a plot. (Bead proximity is the source of the signal in Alpha formats.)
Experiment [2] has the same target. The experiment can be described thus: solid-phase binding assay. The conditions noted are these: parent: est. 1.0; read off a plot.
Setting [3] is: competition with FGF19 for β-Klotho.
[4] abbreviates: competition with FGF21 for β-Klotho.

Sequence of human β-Klotho extracellular domain (aa1–992) fused with a 6 × His tag at the C-terminus (Q86Z14 53-992): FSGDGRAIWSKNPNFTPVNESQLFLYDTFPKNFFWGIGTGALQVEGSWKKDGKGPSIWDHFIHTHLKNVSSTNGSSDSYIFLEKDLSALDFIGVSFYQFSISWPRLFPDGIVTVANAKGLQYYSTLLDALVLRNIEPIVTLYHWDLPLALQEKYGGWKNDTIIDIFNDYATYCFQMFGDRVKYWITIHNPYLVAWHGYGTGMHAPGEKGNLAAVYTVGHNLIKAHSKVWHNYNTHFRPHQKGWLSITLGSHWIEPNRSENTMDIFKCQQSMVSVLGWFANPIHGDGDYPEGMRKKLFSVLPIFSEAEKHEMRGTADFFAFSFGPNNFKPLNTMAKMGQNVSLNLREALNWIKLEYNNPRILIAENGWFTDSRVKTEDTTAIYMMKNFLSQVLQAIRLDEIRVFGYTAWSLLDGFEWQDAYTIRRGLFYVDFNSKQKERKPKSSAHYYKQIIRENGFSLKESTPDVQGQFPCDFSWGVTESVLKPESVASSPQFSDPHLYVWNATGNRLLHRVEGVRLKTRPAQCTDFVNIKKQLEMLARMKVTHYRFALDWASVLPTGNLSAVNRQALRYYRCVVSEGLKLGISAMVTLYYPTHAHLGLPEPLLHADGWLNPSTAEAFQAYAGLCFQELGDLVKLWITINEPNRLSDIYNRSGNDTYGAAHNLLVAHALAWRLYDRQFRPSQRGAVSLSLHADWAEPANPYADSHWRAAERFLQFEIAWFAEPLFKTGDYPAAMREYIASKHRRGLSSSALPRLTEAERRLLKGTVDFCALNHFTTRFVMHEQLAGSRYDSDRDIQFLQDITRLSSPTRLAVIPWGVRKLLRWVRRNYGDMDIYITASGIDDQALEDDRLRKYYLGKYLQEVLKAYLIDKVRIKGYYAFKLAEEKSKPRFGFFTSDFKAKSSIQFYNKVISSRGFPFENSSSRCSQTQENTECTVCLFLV
Sequence of FGF19 C-terminal peptide, WT FGF19^185–216 (from UniProt O95750) 188F-A (O95750 185-216, change not shown): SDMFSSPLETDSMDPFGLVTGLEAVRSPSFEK
Sequence of FGF19 C-terminal peptide, WT FGF19^185–216 (from UniProt O95750) 193E-A (O95750 185-216, change not shown): as above
Sequence of FGF19 C-terminal peptide, WT FGF19^185–216 (from UniProt O95750) 209V-A (O95750 185-216, change not shown): as above
Sequence of FGF19 C-terminal peptide, WT FGF19^185–216 (from UniProt O95750) 201G-A (O95750 185-216, change not shown): as above
Sequence of FGF19 C-terminal peptide, WT FGF19^185–216 (from UniProt O95750) 192L-A (O95750 185-216, change not shown): as above
Sequence of FGF19 C-terminal peptide, WT FGF19^185–216 (from UniProt O95750) 186D-A (O95750 185-216, change not shown): as above
Sequence of FGF19 C-terminal peptide, WT FGF19^185–216 (from UniProt O95750) 204T-A (O95750 185-216, change not shown): as above
Sequence of FGF19 C-terminal peptide, WT FGF19^185–216 (from UniProt O95750) 197M-A (O95750 185-216, change not shown): as above
Sequence of FGF19 C-terminal peptide, WT FGF19^185–216 (from UniProt O95750) 187M-A (O95750 185-216, change not shown): as above
Sequence of FGF19 C-terminal peptide, WT FGF19^185–216 (from UniProt O95750) 196S-A (O95750 185-216, change not shown): as above
Sequence of FGF19 C-terminal peptide, WT FGF19^185–216 (from UniProt O95750) 189S-A (O95750 185-216, change not shown): as above
Sequence of FGF19 C-terminal peptide, WT FGF19^185–216 (from UniProt O95750) 216K-A (O95750 185-216, change not shown): as above
Sequence of FGF19 C-terminal peptide, WT FGF19^185–216 (from UniProt O95750) 195D-A (O95750 185-216, change not shown): as above
Sequence of FGF19 C-terminal peptide, WT FGF19^185–216 (from UniProt O95750) 185S-A (O95750 185-216, change not shown): as above
Sequence of FGF19 C-terminal peptide, WT FGF19^185–216 (from UniProt O95750) 190S-A (O95750 185-216, change not shown): as above
Sequence of FGF19 C-terminal peptide, WT FGF19^185–216 (from UniProt O95750) 206L-A (O95750 185-216, change not shown): as above
Sequence of FGF19 C-terminal peptide, WT FGF19^185–216 (from UniProt O95750) 203V-A (O95750 185-216, change not shown): as above
Sequence of mature human FGF21 polypeptide fused with the human Fc fragment at the N-terminus (Fc-FGF21), wild type (from UniProt Q9NSA1) 178P-A (Q9NSA1 29-209, change not shown): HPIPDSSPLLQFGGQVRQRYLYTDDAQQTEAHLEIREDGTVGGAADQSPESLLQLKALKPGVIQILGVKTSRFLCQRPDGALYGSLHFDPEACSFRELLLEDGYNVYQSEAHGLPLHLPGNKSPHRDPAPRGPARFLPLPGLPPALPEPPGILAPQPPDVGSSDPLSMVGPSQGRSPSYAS
Sequence of mature human FGF21 polypeptide fused with the human Fc fragment at the N-terminus (Fc-FGF21), wild type (from UniProt Q9NSA1) 197V-A (Q9NSA1 29-209, change not shown): as above
Sequence of mature human FGF21 polypeptide fused with the human Fc fragment at the N-terminus (Fc-FGF21), wild type (from UniProt Q9NSA1) 168P-A (Q9NSA1 29-209, change not shown): as above
Sequence of mature human FGF21 polypeptide fused with the human Fc fragment at the N-terminus (Fc-FGF21), wild type (from UniProt Q9NSA1) 170L-A (Q9NSA1 29-209, change not shown): as above
Sequence of mature human FGF21 polypeptide fused with the human Fc fragment at the N-terminus (Fc-FGF21), wild type (from UniProt Q9NSA1) 176E-A (Q9NSA1 29-209, change not shown): as above
Sequence of mature human FGF21 polypeptide fused with the human Fc fragment at the N-terminus (Fc-FGF21), wild type (from UniProt Q9NSA1) 190S-R (Q9NSA1 29-209, change not shown): as above
Sequence of mature human FGF21 polypeptide fused with the human Fc fragment at the N-terminus (Fc-FGF21), wild type (from UniProt Q9NSA1) 179G-A (Q9NSA1 29-209, change not shown): as above
Sequence of mature human FGF21 polypeptide fused with the human Fc fragment at the N-terminus (Fc-FGF21), wild type (from UniProt Q9NSA1) 188V-R (Q9NSA1 29-209, change not shown): as above
Sequence of mature human FGF21 polypeptide fused with the human Fc fragment at the N-terminus (Fc-FGF21), wild type (from UniProt Q9NSA1) 184Q-R (Q9NSA1 29-209, change not shown): as above
Sequence of mature human FGF21 polypeptide fused with the human Fc fragment at the N-terminus (Fc-FGF21), wild type (from UniProt Q9NSA1) 189G-A (Q9NSA1 29-209, change not shown): as above
Sequence of mature human FGF21 polypeptide fused with the human Fc fragment at the N-terminus (Fc-FGF21), wild type (from UniProt Q9NSA1) 185P-R (Q9NSA1 29-209, change not shown): as above
Sequence of mature human FGF21 polypeptide fused with the human Fc fragment at the N-terminus (Fc-FGF21), wild type (from UniProt Q9NSA1) 164F-R (Q9NSA1 29-209, change not shown): as above
Sequence of mature human FGF21 polypeptide fused with the human Fc fragment at the N-terminus (Fc-FGF21), wild type (from UniProt Q9NSA1) 163R-A (Q9NSA1 29-209, change not shown): as above
Sequence of mature human FGF21 polypeptide fused with the human Fc fragment at the N-terminus (Fc-FGF21), wild type (from UniProt Q9NSA1) 209S-A (Q9NSA1 29-209, change not shown): as above
Sequence of mature human FGF21 polypeptide fused with the human Fc fragment at the N-terminus (Fc-FGF21), wild type (from UniProt Q9NSA1) 188V-A (Q9NSA1 29-209, change not shown): as above
Sequence of FGF19 C-terminal peptide, WT FGF19^185–216 (from UniProt O95750) 213S-A (O95750 185-216, change not shown): as the sequence (O95750 185-216, change not shown) above

For the substance “FGF19 C-terminal peptide, WT FGF19^185–216 (from UniProt O95750) 195D-A”, the ratio to parent in experiment [1] (setting [3]) turned out to be 5.5; in experiment [1] (setting [4]) it was 4.5.

As for “FGF19 C-terminal peptide, WT FGF19^185–216 (from UniProt O95750) 190S-A”, the ratio to parent in experiment [1] (setting [3]) was 2.9; in experiment [1] (setting [4]), 1.4.

On to “FGF19 C-terminal peptide, WT FGF19^185–216 (from UniProt O95750) 216K-A”, for which the ratio to parent in experiment [1] (setting [3]) and in experiment [1] (setting [4]) was 0.2 each time.

As for “FGF19 C-terminal peptide, WT FGF19^185–216 (from UniProt O95750) 206L-A”, the ratio to parent was determined as 0.9 in experiment [1] (setting [3]) and 0.8 in experiment [1] (setting [4]).

Regarding “FGF19 C-terminal peptide, WT FGF19^185–216 (from UniProt O95750) 185S-A”, the ratio to parent in experiment [1] (setting [3]) came to 1.4; in experiment [1] (setting [4]) it was 0.8.

As to “FGF19 C-terminal peptide, WT FGF19^185–216 (from UniProt O95750) 186D-A”, the ratio to parent in experiment [1] (setting [3]) came out at 0.8; in experiment [1] (setting [4]), 0.7.

Turning to “FGF19 C-terminal peptide, WT FGF19^185–216 (from UniProt O95750) 204T-A”, the ratio to parent in experiment [1] (setting [3]) turned out to be 1.6; in experiment [1] (setting [4]), 3.2.

Take “FGF19 C-terminal peptide, WT FGF19^185–216 (from UniProt O95750) 188F-A”: the ratio to parent in experiment [1] (setting [3]) came out at 2.7; in experiment [1] (setting [4]) it was 1.4.

“FGF19 C-terminal peptide, WT FGF19^185–216 (from UniProt O95750) 196S-A”: the ratio to parent in experiment [1] (setting [3]) was 9.8; in experiment [1] (setting [4]), 13.

As to “mature human FGF21 polypeptide fused with the human Fc fragment at the N-terminus (Fc-FGF21), wild type (from UniProt Q9NSA1) 166P-A”, in experiment [2], the ratio to parent came out at 0.6.

As for “FGF19 C-terminal peptide, WT FGF19^185–216 (from UniProt O95750) 193E-A”, the ratio to parent in experiment [1] (setting [3]) and in experiment [1] (setting [4]) was 0.3 in each case.

“FGF19 C-terminal peptide, WT FGF19^185–216 (from UniProt O95750) 197M-A”: the ratio to parent in experiment [1] (setting [3]) came out at 0.8; in experiment [1] (setting [4]) it was 0.3.

With “FGF19 C-terminal peptide, WT FGF19^185–216 (from UniProt O95750) 187M-A”, the ratio to parent came to 1.2 in experiment [1] (setting [3]) and 0.9 in experiment [1] (setting [4]).

As to “FGF19 C-terminal peptide, WT FGF19^185–216 (from UniProt O95750) 203V-A”, the results for the ratio to parent in experiment [1] (setting [3]) and in experiment [1] (setting [4]) were 3.8 and 5.5, respectively.

With “mature human FGF21 polypeptide fused with the human Fc fragment at the N-terminus (Fc-FGF21), wild type (from UniProt Q9NSA1) 187D-R”, in experiment [2], the ratio to parent came out at 6.

Turning to “mature human FGF21 polypeptide fused with the human Fc fragment at the N-terminus (Fc-FGF21), wild type (from UniProt Q9NSA1) 168P-A”, the ratio to parent in experiment [2] is 0.5.

Turning to “FGF19 C-terminal peptide, WT FGF19^185–216 (from UniProt O95750) 209V-A”, the ratio to parent in experiment [1] (setting [3]) and in experiment [1] (setting [4]) was 0.6 throughout.

Regarding “FGF19 C-terminal peptide, WT FGF19^185–216 (from UniProt O95750) 213S-A”, in experiment [1] (setting [3]), the ratio to parent was found to be 90.

Consider “mature human FGF21 polypeptide fused with the human Fc fragment at the N-terminus (Fc-FGF21), wild type (from UniProt Q9NSA1) 169G-A”, for which, in experiment [2], the ratio to parent is 0.9.

Consider “mature human FGF21 polypeptide fused with the human Fc fragment at the N-terminus (Fc-FGF21), wild type (from UniProt Q9NSA1) 209S-A”, for which the ratio to parent in experiment [2] was determined as 0.5.

In the case of “mature human FGF21 polypeptide fused with the human Fc fragment at the N-terminus (Fc-FGF21), wild type (from UniProt Q9NSA1) 195S-R”, the ratio to parent in experiment [2] was found to be 0.5.

Regarding “mature human FGF21 polypeptide fused with the human Fc fragment at the N-terminus (Fc-FGF21), wild type (from UniProt Q9NSA1) 167L-A”, in experiment [2], the ratio to parent is 0.4.

“FGF19 C-terminal peptide, WT FGF19^185–216 (from UniProt O95750) 192L-A”: the results for the ratio to parent in experiment [1] (setting [3]) and in experiment [1] (setting [4]) were 11 and 7.5, respectively.

“FGF19 C-terminal peptide, WT FGF19^185–216 (from UniProt O95750) 201G-A”: the figures for the ratio to parent in experiment [1] (setting [3]) and in experiment [1] (setting [4]) were 19 and 20, respectively.

Regarding “FGF19 C-terminal peptide, WT FGF19^185–216 (from UniProt O95750) 189S-A”, the ratio to parent in experiment [1] (setting [3]) was 1.7; in experiment [1] (setting [4]) it was 1.3.

In the case of “mature human FGF21 polypeptide fused with the human Fc fragment at the N-terminus (Fc-FGF21), wild type (from UniProt Q9NSA1) 188V-A”, in experiment [2], the ratio to parent was 200.

On to “mature human FGF21 polypeptide fused with the human Fc fragment at the N-terminus (Fc-FGF21), wild type (from UniProt Q9NSA1) 198G-A”, for which the ratio to parent in experiment [2] was determined as 0.5.

Take “mature human FGF21 polypeptide fused with the human Fc fragment at the N-terminus (Fc-FGF21), wild type (from UniProt Q9NSA1) 208A-R”: the ratio to parent in experiment [2] stood at 9.

As for “mature human FGF21 polypeptide fused with the human Fc fragment at the N-terminus (Fc-FGF21), wild type (from UniProt Q9NSA1) 170L-A”, the ratio to parent in experiment [2] turned out to be 1.

As for “mature human FGF21 polypeptide fused with the human Fc fragment at the N-terminus (Fc-FGF21), wild type (from UniProt Q9NSA1) 164F-A”, in experiment [2], the ratio to parent amounted to 0.8.

In the case of “mature human FGF21 polypeptide fused with the human Fc fragment at the N-terminus (Fc-FGF21), wild type (from UniProt Q9NSA1) 186P-A”, in experiment [2], the ratio to parent amounted to 12.

For the substance “mature human FGF21 polypeptide fused with the human Fc fragment at the N-terminus (Fc-FGF21), wild type (from UniProt Q9NSA1) 185P-R”, the ratio to parent in experiment [2] came out at 1.6.

Regarding “mature human FGF21 polypeptide fused with the human Fc fragment at the N-terminus (Fc-FGF21), wild type (from UniProt Q9NSA1) 179G-A”, in experiment [2], the ratio to parent stood at 1.3.

On to “mature human FGF21 polypeptide fused with the human Fc fragment at the N-terminus (Fc-FGF21), wild type (from UniProt Q9NSA1) 190S-R”, for which the ratio to parent in experiment [2] stood at 6.5.

Take “mature human FGF21 polypeptide fused with the human Fc fragment at the N-terminus (Fc-FGF21), wild type (from UniProt Q9NSA1) 181L-R”: the ratio to parent in experiment [2] was found to be 1.2.

Consider “mature human FGF21 polypeptide fused with the human Fc fragment at the N-terminus (Fc-FGF21), wild type (from UniProt Q9NSA1) 197V-A”, for which the ratio to parent in experiment [2] was found to be 90.

As to “mature human FGF21 polypeptide fused with the human Fc fragment at the N-terminus (Fc-FGF21), wild type (from UniProt Q9NSA1) 189G-A”, the ratio to parent in experiment [2] is 0.8.

Turning to “mature human FGF21 polypeptide fused with the human Fc fragment at the N-terminus (Fc-FGF21), wild type (from UniProt Q9NSA1) 175P-R”, the ratio to parent in experiment [2] turned out to be 1.4.

Take “mature human FGF21 polypeptide fused with the human Fc fragment at the N-terminus (Fc-FGF21), wild type (from UniProt Q9NSA1) 188V-R”: the ratio to parent in experiment [2] stood at 950.

As to “mature human FGF21 polypeptide fused with the human Fc fragment at the N-terminus (Fc-FGF21), wild type (from UniProt Q9NSA1) 176E-A”, the ratio to parent in experiment [2] is 0.5.

As for “mature human FGF21 polypeptide fused with the human Fc fragment at the N-terminus (Fc-FGF21), wild type (from UniProt Q9NSA1) 163R-A”, the ratio to parent in experiment [2] is 0.9.

As for “mature human FGF21 polypeptide fused with the human Fc fragment at the N-terminus (Fc-FGF21), wild type (from UniProt Q9NSA1) 164F-R”, in experiment [2], the ratio to parent is 3.

As to “mature human FGF21 polypeptide fused with the human Fc fragment at the N-terminus (Fc-FGF21), wild type (from UniProt Q9NSA1) 183P-R”, the ratio to parent in experiment [2] was 1.

Regarding “mature human FGF21 polypeptide fused with the human Fc fragment at the N-terminus (Fc-FGF21), wild type (from UniProt Q9NSA1) 178P-A”, in experiment [2], the ratio to parent stood at 0.7.

On to “mature human FGF21 polypeptide fused with the human Fc fragment at the N-terminus (Fc-FGF21), wild type (from UniProt Q9NSA1) 184Q-R”, for which the ratio to parent in experiment [2] amounted to 1.8.
